Assay results: patent US20240262893A1

Target: SARS-CoV-2 (Wuhan-Hu-1) wild-type (WT) spike protein carried on pseudotyped virus or on live wild-type virus (SARS-CoV-2 (Wuhan-Hu-1)), P0DTC2
Experiment: cell-based or functional assay

B1: R2D9 CDR3-knob (peptide)
peptide: ITHKTCPNGYNWFDRCCSWDGTCGDGCCSNRAWPSGNGRADSSIGETYGYEF
modifications: not checked
- pseudovirus neutralization, ng/mL (quantity not given): 24.2 ng/mL
